Experimental data published in patent US7662384B2, “Use of anti-α5β1 antibodies to inhibit cancer cell proliferation” (Facet Biotech Corporation, priority 2004, dated 2010).

Tests used:
[1] = molecular target: T1, α5β1 integrin on the cell surface of C8161 (Homo sapiens, UniProt P05556+P08648); test: FACS analysis of cancer cell line with IIA1; assay type: binding; conditions: C8161 (melanoma); IIA1 10 μg/ml; background MFI ~5
T1 construct: endogenous in cells
Experimental: (§1) Cells were removed with 5 mM EDTA in Tris-HCl (pH 8.0) and blocked by centrifugation in Hank's balanced salt solution containing 3% heat inactivated FBS, 1% normal goat serum (Sigma) and 1% BSA at 4° C. for 5 minutes. Cells were incubated for 30-60 minutes at 4° C. with the mouse anti-α5β1 antibody, IIA1 (10 μg/ml) in FACS buffer (PBS containing 0.1% BSA). Excess monoclonal antibody was removed by centrifugation and cells were washed two times with FACS buffer prior to resuspending in PE-anti-mouse IgG (H+ L) antibody (Southern Biotech, 1:400 dilution) for 30-60 minutes at 4° C. After washing cells were re-suspended in FACS buffer containing propidium iodide (1 μg/ml). Mean fluorescence intensity (MFI) was measured on a FACSCalibur (Becton Dickinson). Background MFI was ˜5.

[2] = molecular target: T2, α5β1 integrin on the cell surface of DU145 (Homo sapiens, UniProt P05556+P08648); test: FACS analysis of cancer cell line with IIA1; assay type: binding; conditions: DU145 (prostate); IIA1 10 μg/ml; background MFI ~5
T2 construct: endogenous in cells
T2 sequence (P08648 42-894 limits assumed): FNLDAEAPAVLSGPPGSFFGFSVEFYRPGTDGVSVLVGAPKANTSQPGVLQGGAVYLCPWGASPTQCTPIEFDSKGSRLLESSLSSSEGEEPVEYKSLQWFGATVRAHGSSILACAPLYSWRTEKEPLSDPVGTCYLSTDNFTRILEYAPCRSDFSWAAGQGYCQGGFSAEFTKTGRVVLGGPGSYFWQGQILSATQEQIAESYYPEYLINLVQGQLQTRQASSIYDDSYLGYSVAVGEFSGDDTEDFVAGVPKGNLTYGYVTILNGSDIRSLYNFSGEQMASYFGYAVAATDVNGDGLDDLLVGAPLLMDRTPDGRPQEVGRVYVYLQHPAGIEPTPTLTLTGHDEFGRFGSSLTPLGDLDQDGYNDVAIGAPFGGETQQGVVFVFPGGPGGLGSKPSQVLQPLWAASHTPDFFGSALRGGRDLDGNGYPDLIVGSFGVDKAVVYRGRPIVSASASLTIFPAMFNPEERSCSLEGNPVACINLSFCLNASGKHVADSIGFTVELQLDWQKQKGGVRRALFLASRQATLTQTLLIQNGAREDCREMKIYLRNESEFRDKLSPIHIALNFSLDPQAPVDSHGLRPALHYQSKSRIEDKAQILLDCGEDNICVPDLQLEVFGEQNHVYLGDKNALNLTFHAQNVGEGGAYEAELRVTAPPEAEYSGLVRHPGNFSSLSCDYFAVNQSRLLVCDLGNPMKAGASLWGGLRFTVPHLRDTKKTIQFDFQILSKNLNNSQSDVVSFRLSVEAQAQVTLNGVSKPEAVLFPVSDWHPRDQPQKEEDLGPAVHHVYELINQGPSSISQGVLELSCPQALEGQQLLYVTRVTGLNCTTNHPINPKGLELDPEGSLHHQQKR
T2 sequence (P08648 895-1049 limits assumed): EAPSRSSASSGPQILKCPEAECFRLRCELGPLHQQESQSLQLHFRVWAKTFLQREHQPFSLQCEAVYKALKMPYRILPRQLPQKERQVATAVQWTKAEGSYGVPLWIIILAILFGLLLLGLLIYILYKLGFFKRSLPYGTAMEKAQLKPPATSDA
T2 sequence (P05556 21-798): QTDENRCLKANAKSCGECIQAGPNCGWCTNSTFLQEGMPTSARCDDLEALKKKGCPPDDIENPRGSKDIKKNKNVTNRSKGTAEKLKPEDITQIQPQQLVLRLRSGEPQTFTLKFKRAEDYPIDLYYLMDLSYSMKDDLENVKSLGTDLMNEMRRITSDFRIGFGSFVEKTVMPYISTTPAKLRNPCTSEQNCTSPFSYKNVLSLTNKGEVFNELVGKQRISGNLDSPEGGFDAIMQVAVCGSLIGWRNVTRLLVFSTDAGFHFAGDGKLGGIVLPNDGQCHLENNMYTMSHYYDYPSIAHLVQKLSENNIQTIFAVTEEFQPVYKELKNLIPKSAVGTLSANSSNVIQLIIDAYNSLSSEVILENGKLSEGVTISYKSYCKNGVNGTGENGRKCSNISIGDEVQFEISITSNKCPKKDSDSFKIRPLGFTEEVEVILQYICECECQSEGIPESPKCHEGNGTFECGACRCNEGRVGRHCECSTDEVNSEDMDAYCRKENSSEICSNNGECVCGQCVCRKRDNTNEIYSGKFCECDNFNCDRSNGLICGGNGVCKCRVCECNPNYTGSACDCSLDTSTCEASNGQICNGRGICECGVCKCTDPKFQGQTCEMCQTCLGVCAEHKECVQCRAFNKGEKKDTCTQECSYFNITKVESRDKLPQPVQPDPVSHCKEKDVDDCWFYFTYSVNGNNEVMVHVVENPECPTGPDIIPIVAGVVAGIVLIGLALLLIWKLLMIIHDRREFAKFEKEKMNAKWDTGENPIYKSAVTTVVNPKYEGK
Experimental: as §1

A549 = test: M200 in vitro cell proliferation assay; assay type: cell-based; conditions: A549 (lung), 4-day assay
Experimental: (§2) Cancer cell lines were plated at a density of 2500 cells/well in 96-well plates in IMDM with supplements in the presence or absence of 10% FBS. At the time of plating, cells were challenged with various concentrations M200 or a non-function blocking anti-α5 antibody, VC5. Four days later, cell viability was assessed by the CellTiter 96 AQueous Non-Radioactive Cell Proliferation Assay (Promega) according to the manufacturer's instructions. All growth studies were done at least 3 times in triplicate.

CAPAN-2 = test: M200 in vitro cell proliferation assay; assay type: cell-based; conditions: CAPAN-2 (pancreas), 4-day assay
Experimental: as §2

SW1990 = test: M200 in vitro cell proliferation assay; assay type: cell-based; conditions: 4-day assay
Experimental: as §2

refractory solid tumors = test: Phase I dose-escalation study: tumor response (RECIST); assay type: in vivo, human; parameters: key to Response outcome: Complete Response (CR): Disappearance of all target lesions confirmed by repeat imaging 25 to 28 days after CR first documented.; Partial Response (PR): At least a 30% decrease in the sum of LD of target lesions, taking as reference the baseline sum LD; Stable Disease (SD): Neither sufficient shrinkage to qualify for PR nor sufficient increase to qualify for PD, taking as references the smallest sum LD.; Progressive Disease (PD): At least a 20% increase in the sum of LD of target lesions, taking as reference the smallest sum LD recorded since treatment started, or the appearance of one or more new lesions
Experimental: A two-part Phase I open-label study was carried to determine the effects of treatment with up to 6 dose levels, from 0.5 mg/kg to 15.0 mg/kg of M200 (volociximab) in 21 human patients with a variety of refractory solid tumor types. The total duration of treatment for the first part was 6 weeks with physical assessments through 45 days after the last dose.
The dosing levels and schedule used in the study were as follows. M200 was administered to the 21 patients on days 1, 15, 22, 29, and 36. The dosing levels and numbers of patients per level were: 0.5 mg/kg (1 patient), 1.0 mg/kg (2 patient), 2.5 mg/kg (3 patients), 5.0 mg/kg (3 patients), 10.0 mg/kg (6 patients) and 15 mg/kg (6 patients). The dose was administered as an intravenous infusion over 1 hour. The first and second doses were separated by a two week period to allow sampling for single-dose pharmacokinetic data. The real-time PK measurements performed following the first dose were used to predict each patient's peak serum concentration following the fifth dose. If the predicted peak serum concentration following the fifth dose was <750 μg/mL, the patient received all 5 doses of M200. The remaining 3 doses were given weekly and followed by a 45-day evaluation period.
Patient evaluations during the study included the following: • a. Screening (within 14 days of study entry) of: medical history and physical examination, ECOG performance status, routine chemistry panel, complete blood count (CBC) with differential and platelets, sensitive C-reactive protein (CRP), urinalysis with microscopic analysis (UA/micro), electrocardiogram (ECG), chest radiograph (CXR), disease-directed body CT or MRI, urine pregnancy test within 48 hours prior to dosing, and coagulation studies (prothrombin [PT] and partial thromboplastin time [PTT]), anti-M200 antibodies (i.e., to detect cross-reactive HAMA or HACA) for patients who previously received murine or chimeric antibodies, head CT for patients with tumors that commonly metastasize to brain or CNS, and, in some patients, a biopsy to evaluate tumor vessel vascularity. • b. On-study laboratory evaluations: routine chemistry panel, urate, serum amylase, CBC with differential and platelets, UA/micro. • c. Routine disease-directed radiographic imaging (e.g., CT scanning) before and after treatment with M200 was used to evaluate tumor response using uni-dimensional, RECIST criteria. Target lesions were selected on the basis of their size (lesions with the longest diameter (LD)) and their suitability for accurate repetitive measurements (either by imaging techniques or clinically). A sum of the LD for all target lesions was calculated and reported as the baseline sum LD. The baseline sum LD was used as reference by which to characterize the objective tumor response. The following response criteria for the target lesions was used to assess the best overall response. • Complete Response (CR): Disappearance of all target lesions confirmed by repeat imaging 25 to 28 days after CR first documented. • Partial Response (PR): At least a 30% decrease in the sum of LD of target lesions, taking as reference the baseline sum LD, confirmed by repeat imaging 25 to 28 days after PR first documented. • Stable Disease (SD): Neither sufficient shrinkage to qualify for PR nor sufficient increase to qualify for PD, taking as references the smallest sum LD. • Progressive Disease (PD): At least a 20% increase in the sum of LD of target lesions, taking as reference the smallest sum LD recorded since treatment started, or the appearance of one or more new lesions. • d. Blood drawn for serum PK measurements, immunogenicity assays (anti-M200 antibodies), vascular growth factors, and measurement of bound and unbound α5β1 on peripheral blood monocytes. • e. A 3-mm punch biopsy of superficial tumor metastasis was obtained and frozen after the last treatment with M200 from patients who consented (not required for enrollment) to the procedure. […]

T1 sequence (P08648 42-894 limits assumed): as the sequence (P08648 42-894 limits assumed) above
T1 sequence (P08648 895-1049 limits assumed): as the sequence (P08648 895-1049 limits assumed) above
T1 sequence (P05556 21-798): as the sequence (P05556 21-798) above

B1: IIA1: parent mouse IgG1 class anti-α5β1 antibody shown to inhibit α5β1 integrin binding to fibronectin (antibody, V domains shown)
VH: MAVLGLLLCLVTFPSCVLSQVQLKESGPGLVAPSQSLSITCTISGFSLTDYGVHWVRQPPGKGLEWLVVIWSDGSSTYNSALKSRMTIRKDNSKSQVFLIMNSLQTDDSAMYYCARHGTYYGMTTTGDALDYWGQGTSVTVSS
VL: MDFQVQIFSFLLISASVIMSRGQIVLTQSPAIMSASLGERVTMTCTASSSVSSNYLHWYQQKPGSAPNLWIYSTSNLASGVPARFSGSGSGTSYSLTISSMEAEDAATYYCHQYLRSPPTFGGGTKLEIK
modifications: mus muscalus
B1 was tested. Which “α5β1 Surface Expression (MFI)” value [1] did it give?
Its value is 122 MFI.

What about the “α5β1 Surface Expression (MFI)” value [2] of the same molecule?
Its value is 87.5 MFI.

B2: M200: chimeric IgG4 anti-α5β1 antibody derived from IIA1; generic name volociximab (antibody, V domains shown)
VH: MAVLGLLLCLVTFPSCVLSQVQLKESGPGLVAPSQSLSITCTISGFSLTDYGVHWVRQPPGKGLEWLVVIWSDGSSTYNSALKSRMTIRKDNSKSQVFLIMNSLQTDDSAMYYCARHGTYYGMTTTGDALDYWGQGTSVTVSS
VL: MDFQVQIFSFLLISASVIMSRGQIVLTQSPAIMSASLGERVTMTCTASSSVSSNYLHWYQQKPGSAPNLWIYSTSNLASGVPARFSGSGSGTSYSLTISSMEAEDAATYYCHQYLRSPPTFGGGTKLEIKDMSVDMSV
modifications: chimeric antibody
notes: chimeric IgG4 anti-α5β1 antibody derived from IIA1; generic name volociximab
Which results are given for B2?
% Growth Inhibition +Serum (A549; 10% FBS): 0%; % Growth Inhibition −Serum (A549; absence of serum): 40%; % Growth Inhibition +Serum (CAPAN-2; 10% FBS): 0%; % Growth Inhibition −Serum (CAPAN-2; absence of serum): 0%; % Growth Inhibition +Serum (SW1990; 10% FBS): 0%; % Growth Inhibition −Serum (SW1990; absence of serum): 10%; Response outcome (refractory solid tumors; 0.5 mg/kg, CRC patient): (PD) (Progressive Disease (PD): At least a 20% increase in the sum of LD of target lesions, taking as reference the smallest sum LD recorded since treatment started, or the appearance of one or more new lesions.); Response outcome (refractory solid tumors; 1.0 mg/kg, HCC patient): (SD); Response outcome (refractory solid tumors; 1.0 mg/kg, PC patient): (SD); Response outcome (refractory solid tumors; 2.5 mg/kg, CRC patient): (PD) (Progressive Disease (PD): At least a 20% increase in the sum of LD of target lesions, taking as reference the smallest sum LD recorded since treatment started, or the appearance of one or more new lesions.); Response outcome (refractory solid tumors; 2.5 mg/kg, MEL Ocular patient): (PD) (Progressive Disease (PD): At least a 20% increase in the sum of LD of target lesions, taking as reference the smallest sum LD recorded since treatment started, or the appearance of one or more new lesions.); Response outcome (refractory solid tumors; 2.5 mg/kg, NSCLC patient): (SD); Response outcome (refractory solid tumors; 5.0 mg/kg, EC patient): (PD) (Progressive Disease (PD): At least a 20% increase in the sum of LD of target lesions, taking as reference the smallest sum LD recorded since treatment started, or the appearance of one or more new lesions.); Response outcome (refractory solid tumors; 5.0 mg/kg, HCC patient): (SD); Response outcome (refractory solid tumors; 5.0 mg/kg, THY patient): (PD) (Progressive Disease (PD): At least a 20% increase in the sum of LD of target lesions, taking as reference the smallest sum LD recorded since treatment started, or the appearance of one or more new lesions.); Response outcome (refractory solid tumors; 10.0 mg/kg, BC patient): (SD); Response outcome (refractory solid tumors; 10.0 mg/kg, CRC patient (two patients)): (SD); Response outcome (refractory solid tumors; 10.0 mg/kg, MEL patient): (PD) (Progressive Disease (PD): At least a 20% increase in the sum of LD of target lesions, taking as reference the smallest sum LD recorded since treatment started, or the appearance of one or more new lesions.); Response outcome (refractory solid tumors; 10.0 mg/kg, PARO patient): (SD); Response outcome (refractory solid tumors; 10.0 mg/kg, RCC patient): (SD); Response outcome (refractory solid tumors; 15.0 mg/kg, EC patient): (PD) (Progressive Disease (PD): At least a 20% increase in the sum of LD of target lesions, taking as reference the smallest sum LD recorded since treatment started, or the appearance of one or more new lesions.); Response outcome (refractory solid tumors; 15.0 mg/kg, PRO patient): (PD) (Progressive Disease (PD): At least a 20% increase in the sum of LD of target lesions, taking as reference the smallest sum LD recorded since treatment started, or the appearance of one or more new lesions.); overall response outcome: progressive disease (PD) (refractory solid tumors; 21 treated patients, 0.5-15 mg/kg): 10 patients
